Results from IntAct's records for PubMed 15214843.

B1: Septin-5 (Homo sapiens), Q99719 (parent)
chain: MSTGLRYKSKLATPEDKQDIDKQYVGFATLPNQVHRKSVKKGFDFTLMVAGESGLGKSTLVHSLFLTDLYKDRKLLSAEERISQTVEILKHTVDIEEKGVKLKLTIVDTPGFGDAVNNTECWKPITDYVDQQFEQYFRDESGLNRKNIQDNRVHCCLYFISPFGHGLRPVDVGFMKALHEKVNIVPLIAKADCLVPSEIRKLKERIREEIDKFGIHVYQFPECDSDEDEDFKQQDRELKESAPFAVIGSNTVVEAKGQRVRGRLYPWGIVEVENQAHCDFVKLRNMLIRTHMHDLKDVTCDVHYENYRAHCIQQMTSKLTQDSRMESPIPILPLPTPDAETEKLIRMKDEELRRMQEMLQRMKQQMQDQ
partner: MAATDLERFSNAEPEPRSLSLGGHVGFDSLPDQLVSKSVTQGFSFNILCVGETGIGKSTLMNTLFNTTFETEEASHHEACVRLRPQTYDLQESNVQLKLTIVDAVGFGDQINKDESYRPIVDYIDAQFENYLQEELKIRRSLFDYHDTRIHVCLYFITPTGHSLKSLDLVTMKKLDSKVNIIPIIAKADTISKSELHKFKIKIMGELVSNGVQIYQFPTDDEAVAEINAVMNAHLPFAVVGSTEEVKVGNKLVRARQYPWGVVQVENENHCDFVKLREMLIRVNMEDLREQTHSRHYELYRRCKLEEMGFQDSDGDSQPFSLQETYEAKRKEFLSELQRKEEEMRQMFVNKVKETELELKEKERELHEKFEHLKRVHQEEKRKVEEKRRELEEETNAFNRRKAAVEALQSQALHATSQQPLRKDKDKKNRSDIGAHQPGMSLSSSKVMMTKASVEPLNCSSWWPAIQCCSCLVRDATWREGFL

Variants of: B1
Conditions: with sept8_human SEPTIN8, Q92599

Variant	effect of a mutation on the interaction
MSTGLRYKSKLATPEDKQDIDKQYVGFATLPNQVHRKAVKKGFDFTLMVAGESGLGKSTLVHSLFLTDLYKDRKLLSAEERISQTVEILKHTVDIEEKGVKLKLTIVDTPGFGDAVNNTECWKPITDYVDQQFEQYFRDESGLNRKNIQDNRVHCCLYFISPFGHGLRPVDVGFMKALHEKVNIVPLIAKADCLVPSEIRKLKERIREEIDKFGIHVYQFPECDSDEDEDFKQQDRELKESAPFAVIGSNTVVEAKGQRVRGRLYPWGIVEVENQAHCDFVKLRNMLIRTHMHDLKDVTCDVHYENYRAHCIQQMTSKLTQDSRMESPIPILPLPTPDAETEKLIRMKDEELRRMQEMLQRMKQQMQDQ [S38A]	with no effect
MSTGLRYKSKLATPEDKQDIDKQYVGFATLPNQVHRKSVAAGFDFTLMVAGESGLGKSTLVHSLFLTDLYKDRKLLSAEERISQTVEILKHTVDIEEKGVKLKLTIVDTPGFGDAVNNTECWKPITDYVDQQFEQYFRDESGLNRKNIQDNRVHCCLYFISPFGHGLRPVDVGFMKALHEKVNIVPLIAKADCLVPSEIRKLKERIREEIDKFGIHVYQFPECDSDEDEDFKQQDRELKESAPFAVIGSNTVVEAKGQRVRGRLYPWGIVEVENQAHCDFVKLRNMLIRTHMHDLKDVTCDVHYENYRAHCIQQMTSKLTQDSRMESPIPILPLPTPDAETEKLIRMKDEELRRMQEMLQRMKQQMQDQ [K40A;K41A]	with no effect
MSTGLRYKSKLATPEDKQDIDKQYVGFATLPNQVHRKSVKKGFDFTLMVAGESGLGKNTLVHSLFLTDLYKDRKLLSAEERISQTVEILKHTVDIEEKGVKLKLTIVDTPGFGDAVNNTECWKPITDYVDQQFEQYFRDESGLNRKNIQDNRVHCCLYFISPFGHGLRPVDVGFMKALHEKVNIVPLIAKADCLVPSEIRKLKERIREEIDKFGIHVYQFPECDSDEDEDFKQQDRELKESAPFAVIGSNTVVEAKGQRVRGRLYPWGIVEVENQAHCDFVKLRNMLIRTHMHDLKDVTCDVHYENYRAHCIQQMTSKLTQDSRMESPIPILPLPTPDAETEKLIRMKDEELRRMQEMLQRMKQQMQDQ [S58N]	disrupting interaction strength
